Entries after “also recorded” stand apart in the source; their conditions may differ.
Tests used:
[1] = system: cortical axons repelled by Sema3A secreted from the ventral spinal cord; assay: Co-culture of cortical slices and ventral spinal cord explants (axon guidance response to Sema3A); type: cell-based, mice; conditions: chimera 3 μg/ml in culture medium
Summary of the method: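 Cortical slices from P0–P2 mice were co-cultured in a 3D plasma clot with ventral cervical spinal cord explants, alone or with L1Fc chimeras (3 μg/ml), ODQ (10^−5 M) or 7NI ([…]). After 1–2 DIV and PFA fixation, guidance was scored from −2 (repulsion) to +2 (attraction). Axon number and the three longest fibre lengths were measured in proximal and distal 600 μm regions.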

NP-1 = assay: Binding of L1Fc chimeras to NP-1 expressing COS7 cells (immunofluorescence)
Procedure: The mutant L1Fc chimeras were produced and purified as described previously (De Angelis et al., 1999). Briefly, COS-7 cells were transiently transfected with 10 μg DNA per 150 mm culture dish, the soluble Fc chimeric protein was allowed to accumulate in the media for 6 days and was recovered and purified by protein A-Sepharose affinity chromatography. In the binding experiments, L1Fcs were cross-linked to anti-human Fc antibodies (50 μg/ml, Jackson Immunoresearch) for 1 hr at 37° C. Binding detection to NP-1 requested concentrations of L1Fcs 10 folds higher than L1. Antibody conjugated L1-Fc protein was then incubated with monolayers of COS7 cells transiently transfected with expression vectors encoding full length human L1 or myc-tagged NP-1 where the cytoplasmic domain is deleted (gift of J. Raper, 2000 and Renzi et al., 1999). Following incubation, the cells were fixed with 4% PFA, and processed for double-immunofluorescence detection. NP-1 was detected using a mouse anti-c myc antibody (clone 9E10, Sigma) and L1 using a rat monoclonal anti-L1 antibody. Secondary antibody anti-c-myc (Texas-red conjugated anti-mouse antibodies) was used to detect NP-1, anti-L1 (Texas red conjugated anti-rat antibodies) to detect L1, and anti-Fc (FITC conjugated anti-rabbit antibodies) to detect bound L1Fc chimeras. After secondary antibody incubation, the cells were washed with PBS and mounted in Mowiol (Calbiochem).
Next, we examined the ability of the mutant L1 Fc chimeras to bind NP-1. COS7 cells were transfected with a vector encoding the extracellular and transmembrane domains of NP-1 fused to a myc tag (ANP-1, Renzi et al., J. Neurosci., 15:7870-7880, 1999), and incubated with the mutant L1Fc chimeras. Binding was detected by immunofluorescence. […] Binding of L120V, G121S and A426D L1Fcs to NP-1 is illustrated in FIG. 3.

L1 = conditions: mutant bound to itself; cited from earlier work
F3, axonin-1 and TAX-1 [2] = biological target: T1, F3, axonin-1 and TAX-1 (Homo sapiens, UniProt Q02246); conditions: TAX-1; cited from earlier work
T1 sequence (Q02246 31-1012): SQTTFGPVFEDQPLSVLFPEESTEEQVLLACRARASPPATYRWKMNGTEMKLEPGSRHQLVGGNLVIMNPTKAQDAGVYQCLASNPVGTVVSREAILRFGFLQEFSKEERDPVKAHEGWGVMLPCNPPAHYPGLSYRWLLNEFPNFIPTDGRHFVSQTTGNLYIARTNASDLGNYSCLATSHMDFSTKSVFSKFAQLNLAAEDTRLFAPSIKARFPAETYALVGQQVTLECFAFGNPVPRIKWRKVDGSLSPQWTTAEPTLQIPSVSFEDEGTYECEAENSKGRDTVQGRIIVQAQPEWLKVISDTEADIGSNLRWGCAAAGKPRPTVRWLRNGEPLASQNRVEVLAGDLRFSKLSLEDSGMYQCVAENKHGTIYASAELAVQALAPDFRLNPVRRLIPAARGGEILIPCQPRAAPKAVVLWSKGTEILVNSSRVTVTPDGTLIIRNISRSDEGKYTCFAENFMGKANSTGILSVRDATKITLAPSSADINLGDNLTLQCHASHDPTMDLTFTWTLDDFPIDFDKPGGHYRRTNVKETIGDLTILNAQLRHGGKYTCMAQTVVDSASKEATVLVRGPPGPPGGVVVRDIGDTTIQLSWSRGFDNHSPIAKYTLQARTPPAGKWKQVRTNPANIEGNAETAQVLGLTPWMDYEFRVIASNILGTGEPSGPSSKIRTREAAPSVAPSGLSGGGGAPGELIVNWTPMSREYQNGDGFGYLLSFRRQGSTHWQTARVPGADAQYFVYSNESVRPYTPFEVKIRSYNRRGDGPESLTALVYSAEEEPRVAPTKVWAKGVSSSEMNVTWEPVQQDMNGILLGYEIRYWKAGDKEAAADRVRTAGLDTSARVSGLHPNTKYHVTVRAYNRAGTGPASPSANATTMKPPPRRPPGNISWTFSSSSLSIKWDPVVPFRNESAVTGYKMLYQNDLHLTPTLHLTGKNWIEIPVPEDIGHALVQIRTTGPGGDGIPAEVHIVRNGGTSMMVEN

F3, axonin-1 and TAX-1 [3] = conditions: F3, axonin-1 (and TAX-1 where stated); cited from earlier work

B1: D598N: L1Fc chimera with missense mutation D598N in Ig domain 6 (protein)
chain: IQIPEEYEGHHVMEPPVITEQSPRRLVVFPTDDISLKCEASGKPEVQFRWTRDGVHFKPKEELGVTVYQSPHSGSFTITGNNSNFAQRFQGIYRCFASNKLGTAMSHEIRLMAEGAPKWPKETVKPVEVEEGESVVLPCNPPPSAEPLRIYWMNSKILHIKQDERVTMGQNGNLYFANVLTSDNHSDYICHAHFPGTRTIIQKEPIDLRVKATNSMIDRKPRLLFPTNSSSHLVALQGQPLVLECIAEGFPTPTIKWLRPSGPMPADRVTYQNHNKTLQLLKVGEEDDGEYRCLAENSLGSARHAYYVTVEAAPYWLHKPQSHLYGPGETARLDCQVQGRPQPEVTWRINGIPVEELAKDQKYRIQRGALILSNVQPSDTMVTQCEARNRHGLLLANAYIYVVQLPAKILTADNQTYMAVQGSTAYLLCKAFGAPVPSVQWLDEDGTTVLQDERFFPYANGTLGIRDLQANDTGRYFCLAANDQNNVTIMANLKVKDATQITQGPRSTIEKKGSRVTFTCQASFDPSLQPSITWRGDGRDLQELGDSDKYFIEDGRLVIHSLDYSDQGNYSCVASTELNVVESRAQLLVVGSPGPVPRLVLSDLHLLTQSQVRVSWSPAEDHNAPIEKYDIEFEDKEMAPEKWYSLGKVPGNQTSTTLKLSPYVHYTFRVTAINKYGPGEPSPVSETVVTPEAAPEKNPVDVKGEGNETTNMVITWKPLRWMDWNAPQVQYRVQWRPQGTRGPWQEQIVSDPFLVVSNTSTFVPYEIKVQAVNSQGKGPEPQVTIGYSGEDYPQAIPELEGIEILNSSAVLVKWRPVDLAQVKGHLRGYNVTYWREGSQRKHSKRHIHKDHVVVPANTTSVILSGLRPYSSYHLEVQAFNGRGSGPASEFTFSTPEGVPGHPEALHLECQSNTSLLLRWQPPLSHNGVLTGYVLSYHPLDEGGKGQLSFNLRDPELRTHNLTDLSPHLRYRFQLQATTKEGPGEAIVREGGTMALSGISDFGNISATAGENYSVVSWVPKEGQCNFRFHILFKALGEEKGGASLSPQYVSYNQSSYTQWDLQPDTDYEIHLFKERMFRHQMAVKTNGTGRVRLPPAGFATE
modifications: left off: a dimerising Fc or GST
What does the source list for B1?
switching of Sema3A repulsion to attraction by L1Fc chimera [1]: able to reverse Sema3A repulsion to attraction; also recorded: efficiently induce switching of Sema3A repulsion to attraction; also recorded: switched Sema3A from repulsion to attraction to the same extent as wild type L1Fc; binding to NP-1 expressing cells (NP-1): bound NP-1 expressing cells; effect of mutation on homophilic binding (L1): very modest effect; effect of mutation on heterophilic binding to TAX-1 (F3, axonin-1 and TAX-1 [2]): though not to TAX-1; effect of mutation on heterophilic binding (F3, axonin-1 and TAX-1 [3]): significantly reduces
